Source: patent publication US20220347267A1, “METHODS TO IMPROVE PATIENT RESPONSE TO IMMUNE CHECKPOINT INHIBITORS AND FUNCTIONAL TESTS TO PREDICT RESPONSE” (Biomarker Strategies, LLC, priority 2019, published 2022)

Legend:
Assay in all cases: PD-L1 flow cytometry, IFNγ modulation
Format in all cases: cell-based, human
[1] = test system: H460 cells
Protocol: (§1) Samples (150 uL per tube) were first incubated with a blocking reagent at 1:20 for 15 min at room temperature. Alexa 488-conjugated PD-L1 antibody (CST cat #25048, Lot #2) and Alexa 488-conjugated isotype antibody (CST cat #2975, Lot #16) were added to experimental samples and isotype control samples, respectively, at a manufacturer recommended dilution of 1:50 and the samples were incubated for 30 min at room temperature. Other fluorophore-conjugates and PD-L1 antibodies, including those targeting different epitopes, can be readily used. Additionally, antibodies detecting other biomarkers with appropriate processing (e.g. permeabilization of cells) to predict response (e.g. p-STAT-1) can be used. Following the incubation with an antibody, 1 mL of 2% FBS in PBS was added to each tube to dilute the antibody. Samples were then centrifuged at 200 rcf for 5 min. Supernatant was carefully aspirated and 200 uL of 10% neutral buffered formalin (NBF) was added. Samples were then fixed for 10 min at room temperature. NBF was diluted with 1 mL of 2% FBS in PBS and the samples were centrifuged at 200 rcf for 5 min. Supernatant was aspirated and the cells were resuspended in 0.5 mL of 2% FBS in PBS for flow cytometric analysis. In this experiment, 10% NBF was used to fix cells, but other fixatives, for example, 4% paraformaldehyde can be used.
(§2) Flow cytometry was performed using BDTM LSR II cytometer and BD FACSDiva™ data acquisition software. Any commercially available flow cytometry analysis software can be used, such as FlowJo (BD) and FCS Express (De Novo Software). Additionally, other flow cytometry instruments can be readily used. A total of 20,000 events were recorded for each sample. A Scatter gate was first applied, and a singlet gate was then applied on the scatter population to exclude doublet population. A 488 nm blue laser and a 530 nm detector were used to capture PD-LL signal. Any signal above the isotype control signal of the singlet population was considered PD-L1+(see FIG. 33). Though it was excluded from this experiment, cell viability can be assessed, and dead cells excluded from analysis, using stains such as Live/Dead™ Fixable Dead Cell Stain (Thermo) for fixed cells, or either 7-AAD (7-Aminoactinomycin D) or Propidium Iodide for unfixed cells.
(§3) A percent change in PD-L1+ events between Untreated (non-modulated; vehicle control) and Treated (modulated with IFNγ) samples was calculated for each of the four cell lines tested (Table 2). […] A percent change in PD-L1 signal between Untreated and Treated samples was calculated for each of the four cell lines tested. […] The mean PD-L1 signal was used to calculate the percent change, however, median (as shown in FIGS. 34A-34H), geometric mean, mode or any other averaging method can also be used. To assess the difference in PD-L1 expression level or number of PD-L1+ events between Treated and Untreated samples, either a percent change or fold change can be calculated. Differences in PD-L1 expression level can also be assessed between a control sample with a known PD-L1 level and a clinical sample with an unknown PD-L1 level. To do so, the assay result of modulated and unmodulated clinical samples should be normalized to that of a control sample. A percent change or fold change between modulated and unmodulated samples can then be calculated using the normalized values. Baseline PD-L1 levels, as well as changes to PD-L1 upon modulation, can be used to predict response to therapy. As mentioned in the Methods section above, the antibody against PD-L1 used in this experiment targets extracellular portion of the PD-L1 molecule and as such, permeabilization was not performed. Antibodies such as those that target other PD-L1 domains would yield different PD-L1 expression patterns depending on the form(s) of PD-L1 present in the cell lines tested. Flow cytometry cannot detect PD-L1 molecules that are already secreted and not bound to other cell surfaces proteins. […]

[2] = test system: SKMES1 cells
Protocol: as §1, §2, §3

[3] = test system: H1650 cells
Protocol: as §1, §2, §3

[4] = test system: H1299 cells
Protocol: as §1, §2, §3

[5] = modulated with IFNγ, 20,000 events recorded

B1: IFNγ: human IFNγ, modulator (10 ng/ml; Sigma Aldrich) (protein, UniProt P01579 24-161, looked up)
Interferon gamma: QDPYVKEAENLKKYFNAGHSDVADNGTLFLGILKNWKEESDRKIMQSQIVSFYFKLFKNFKDDQSIQKSVETIKEDMNVKFFNSNKKKRDDFEKLTNYSVTDLNVQRKAIHELIQVMAELSPAAKTGKRKRSQMLFRG
[1]; IFNγ treated vs untreated
  Mean PD-L1 signal in Singlets, % change (Treated - Untreated)/Untreated: 20%
  Mean PD-L1 signal in Singlets, Fold change (Treated/Untreated): 1.20
  Number of Events in PD-L1 + population, % change (Treated - Untreated)/Untreated: 4%
  Number of Events in PD-L1 + population, Fold change (Treated/Untreated): 1.04
[1]; modulated with IFNγ
  Mean PD-L1 signal in Singlets, Treated: 1646
[1]; [5]
  Number of Events in PD-L1 + population, Treated: 13382
[2]; IFNγ treated vs untreated
  Mean PD-L1 signal in Singlets, % change (Treated - Untreated)/Untreated: 22%
  Mean PD-L1 signal in Singlets, Fold change (Treated/Untreated): 1.22
  Number of Events in PD-L1 + population, % change (Treated - Untreated)/Untreated: 3%
  Number of Events in PD-L1 + population, Fold change (Treated/Untreated): 1.03
[2]; modulated with IFNγ
  Mean PD-L1 signal in Singlets, Treated: 4228
[2]; [5]
  Number of Events in PD-L1 + population, Treated: 1772
[3]; IFNγ treated vs untreated
  Mean PD-L1 signal in Singlets, % change (Treated - Untreated)/Untreated: 63%
  Mean PD-L1 signal in Singlets, Fold change (Treated/Untreated): 1.63
  Number of Events in PD-L1 + population, % change (Treated - Untreated)/Untreated: 266%
  Number of Events in PD-L1 + population, Fold change (Treated/Untreated): 3.66
[3]; modulated with IFNγ
  Mean PD-L1 signal in Singlets, Treated: 714
[3]; [5]
  Number of Events in PD-L1 + population, Treated: 5883
[4]; IFNγ treated vs untreated
  Mean PD-L1 signal in Singlets, % change (Treated - Untreated)/Untreated: 24%
  Mean PD-L1 signal in Singlets, Fold change (Treated/Untreated): 1.24
  Number of Events in PD-L1 + population, % change (Treated - Untreated)/Untreated: 71%
  Number of Events in PD-L1 + population, Fold change (Treated/Untreated): 1.71
[4]; modulated with IFNγ
  Mean PD-L1 signal in Singlets, Treated: 538
[4]; [5]
  Number of Events in PD-L1 + population, Treated: 3462
